Consider two molecules from article PMC8075905, “Mapping the binding sites of antibodies utilized in programmed cell death ligand-1 predictive immunohistochemical assays for use with immuno-oncology therapies” (Modern Pathology, 2019).

For assay [1], the target named is T1, Ext4 PD-L1-GFP, a PD-L1 mutant with residues 284-290 deleted (Homo sapiens, UniProt Q9NZQ7, residues 284–290 deleted).
T1 construct: The label 'Ext4' is probably a slip for 'Int4'; source: HEK293 cells, expressed, on cells
The experiment in a line: immunostaining of cells or tissue; confocal immunofluorescence microscopy of HEK293 cells expressing PD-L1-GFP constructs, stained with r22C3 and r28-8; protocol in Supplementary Appendix B. The settings on record: one partner purified.

The target in assay [2] is T2, His-tagged extracellular domain of PD-L1 (residues 19-238) (Homo sapiens (Human)., UniProt Q9NZQ7, N-linked glycosylation (sites N35, N192, N200, N219)).
T2 construct: programmed cell death ligand-1 (PD-L1), human, extracellular domain, residues 19-238 of the 290-residue protein; The limits are stated for the SPR experiment; also called PD-L1 extracellular domain; recombinant PD-L1; source: provided by MedImmune, Cambridge, UK; purified
T2 sequence (Q9NZQ7 19-238): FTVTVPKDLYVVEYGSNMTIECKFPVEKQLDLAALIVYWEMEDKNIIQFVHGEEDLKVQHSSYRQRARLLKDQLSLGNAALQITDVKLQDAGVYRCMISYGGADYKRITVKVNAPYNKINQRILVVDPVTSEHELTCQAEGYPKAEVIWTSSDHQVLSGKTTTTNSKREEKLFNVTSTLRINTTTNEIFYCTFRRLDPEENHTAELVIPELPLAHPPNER
Put plainly: SPR; Biacore T200, 25 °C, PBS (10 mM sodium phosphate, 154 mM NaCl, pH 7.4) with 0.05% Tween-20; 90 RU r22C3 captured on anti-mouse antibody on a C1 chip; PD-L1 extracellular domain injected (top 110 nM, two-fold dilutions); 1:1 Langmuir model. The settings on record: both partners purified.

In assay [3] the target is T2, His-tagged extracellular domain of …. The experiment in a line: SPR; Biacore T200, 25 °C, PBS pH 7.4 with 0.05% Tween-20; 90 RU r22C3 captured, PD-L1 extracellular domain injected at 110 nM, then r28-8 injected over the r22C3-PD-L1 complex (top 33 nM, two-fold dilutions); 1:1 Langmuir model. The settings on record: both partners purified. (In SPR one partner is held on a chip, and binding of the other changes the refractive index at the surface.)

T1 sequence (Q9NZQ7 19-283, stated change not applied): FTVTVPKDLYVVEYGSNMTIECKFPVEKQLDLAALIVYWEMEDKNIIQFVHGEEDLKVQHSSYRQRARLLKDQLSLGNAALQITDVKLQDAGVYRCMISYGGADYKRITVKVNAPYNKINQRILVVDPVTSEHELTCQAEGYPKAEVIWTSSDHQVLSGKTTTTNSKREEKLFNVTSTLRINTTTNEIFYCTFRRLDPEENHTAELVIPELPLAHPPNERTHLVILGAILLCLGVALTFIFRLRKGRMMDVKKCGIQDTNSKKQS

B1: recombinant 22C3 antibody (r22C3), mouse IgG (antibody, V domains shown)
VH: QVHLQQSGAELAKPGASVKMSCKASGYTFTSYWIHWIKQRPGQGLEWIGYINPSSGYHEYNQKFIDKATLTADRSSSTAYMHLTSLTSEDSAVYYCARSGWLIHGDYYFDFWGQGTTLVTVS
VL: DIVMSQSPSSLAVSAGEKVTMTCKSSQSLLHTSTRKNYLAWYQQKPGQSPKLLIYWASTRESGVPDRFTGSGSGTDFTLTISSVQAEDLAVYYCKQSYDVVTFGAGTKLEIK
notes: Mouse IgG; source: CHO-EBNA-GS cells, transient expression, purified
As usually defined, the Kd is a measure of binding affinity in units of concentration. As for B1, the binding result in assay [1] is on record as “binds”. Also, the Kd in assay [2] is below 0.04 nM.

B2: recombinant 28-8 antibody (r28-8), rabbit IgG (antibody, V domains shown)
VH: CLSVEESGGRLVTPGTPLTLTCTASGFTITNYHMFWVRQAPGKGLEWIGVITSSGIGSSSTTYYATWAKGRFTISKTSTTVNLRITSPTTEDTATYFCARDYFTNTYYALDIWGPGTLVTVSS
VL: ALVMTQTPSSTSTAVGGTVTIKCQASQSISVYLAWYQQKPGQPPKLLIYSASTLASGVPSRFKGSRSGTEYTLTISGVQREDAATYYCLGSAGSFGGGTEVVVK
notes: Rabbit IgG; source: CHO-EBNA-GS cells, transient expression, purified
In assay [3], B2 gave a Kd below 0.04 nM. For the same molecule, the binding result in assay [1] is “binds”.
